The source of these data is paper PMC12499889, “Voltage-matrix nanopore profiling for the discrimination of protein mixtures”.

For this data set, the target named is carcinoembryonic antigen (CEA) (UniProt P06731 35-685). Briefly: solid-state nanopore (single-molecule); 3.6 M LiCl; 10 nM CEA, 1 uM aptamer; shift in signal distribution; 3.6 M LiCl, 10 mM HEPES-KOH pH 8.0; 1 uM aptamer incubated with 10 nM CEA for 1 h; temperature not stated; nanopore at -50 to -300 mV. The following applies: protein: commercial.
Chain of carcinoembryonic antigen (CEA) (P06731 35-685): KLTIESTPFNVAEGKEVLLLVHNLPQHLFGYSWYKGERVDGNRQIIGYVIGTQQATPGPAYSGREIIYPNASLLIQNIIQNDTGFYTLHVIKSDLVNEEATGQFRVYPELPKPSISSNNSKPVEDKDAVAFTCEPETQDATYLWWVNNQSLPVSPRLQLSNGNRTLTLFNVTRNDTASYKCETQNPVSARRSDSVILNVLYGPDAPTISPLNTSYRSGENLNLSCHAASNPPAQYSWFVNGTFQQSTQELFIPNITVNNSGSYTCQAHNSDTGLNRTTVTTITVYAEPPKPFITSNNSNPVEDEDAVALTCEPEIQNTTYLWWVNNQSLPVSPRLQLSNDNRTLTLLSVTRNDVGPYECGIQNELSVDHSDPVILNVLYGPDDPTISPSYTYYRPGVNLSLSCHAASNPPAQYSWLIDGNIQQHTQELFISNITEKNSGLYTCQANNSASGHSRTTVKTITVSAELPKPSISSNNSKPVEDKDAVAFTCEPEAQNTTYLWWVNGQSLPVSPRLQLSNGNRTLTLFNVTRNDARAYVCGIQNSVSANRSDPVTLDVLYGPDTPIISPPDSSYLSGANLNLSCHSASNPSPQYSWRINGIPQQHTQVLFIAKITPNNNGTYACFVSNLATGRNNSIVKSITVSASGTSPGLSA

B1: CEA DNA aptamer (ssDNA)
DNA: TCGCGCGAGTCGTCTGGGAGCTACGTTTAGCGAGTCCGACGCTCGGTGCCTCTTCGGGAGGACGATGCGG
Turning to B1, the binding result is given as “binds”.
